The source of these data is patent EP4667489A1 (Kyinno Biotechnology Co., Ltd., dated 2025).

Where two headings read alike, the source gives them in different places.

The target of assay [1] is T1, human PDL1 expressed on 293T-PDL1 cells (human, UniProt Q9NZQ7 19-290). The assay is described as follows: cell-based or functional assay.
The target of assay [2] is T2, PDL1-mFc (fusion protein of the human PDL1 extracellular domain and mouse Fc; Kyinno, Cat No.: KP-1008) (human; mouse, UniProt Q9NZQ7 19-238).
T2 construct: extracellular domain; bought; also called human PDL1-mFc; not shown: mouse Fc
T2 sequence (Q9NZQ7 19-238): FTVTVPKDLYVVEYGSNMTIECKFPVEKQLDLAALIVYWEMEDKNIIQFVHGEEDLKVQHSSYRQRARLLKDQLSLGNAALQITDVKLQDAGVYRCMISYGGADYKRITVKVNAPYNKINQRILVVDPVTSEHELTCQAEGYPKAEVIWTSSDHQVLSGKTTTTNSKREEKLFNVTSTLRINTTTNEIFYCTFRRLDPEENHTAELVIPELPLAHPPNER
The assay can be described thus: flow cytometry, blocking of PDL1-mFc binding to 293T-PD1 cells.

Assay [3] deals with T1, human PDL1 expressed on 293T-PDL1 cells. The assay is described as follows: flow cytometry on 293T-PDL1 cells.
Assay [4] deals with T3, human EGFR expressed on CT26-EGFR cells (human, UniProt P00533 25-1210).
T3 construct: whole, on cells; CT26 cells stably expressing human EGFR (Kyinno KC-1451); also called EGFR-expressing cells; 293T-NFAT-Luc2-EGFR cells
The assay can be described thus: flow cytometry on CT26-EGFR cells.

Assay [5] concerns the target T4, EGFR-mFc (fusion protein of the human EGFR extracellular domain and mouse Fc; Kyinno, Cat No.: KP-1148) (human; mouse, UniProt P00533 25-645).
T4 construct: extracellular domain; bought; also called EGFR-Fc; not shown: mouse Fc
The assay can be described thus: ELISA, blocking of EGFR-mFc binding to coated EGF-His.

Assay [6] concerns the target T3, human EGFR expressed on CT26-EGFR cells. The assay can be described thus: cell-based or functional assay.
For assay [7], the target named is T5, PDL1-hFc (Kyinno, Cat No.: KP-1009) (human, UniProt Q9NZQ7 19-238, limits assumed).
T5 construct: bought; not shown: human Fc (hFc)
T5 sequence (Q9NZQ7 19-238 limits assumed): as the sequence (Q9NZQ7 19-238) above
The assay can be described thus: flow cytometry, blocking of PDL1 Fc fusion (taken as PDL1-hFc) binding to 293T-PD1 cells.

In assay [8] the target is T6, PDL1-His (Kyinno, Cat No.: KP-1022) (UniProt Q9NZQ7 19-238, limits assumed).
T6 construct: not shown: His tag
T6 sequence (Q9NZQ7 19-238 limits assumed): as the sequence (Q9NZQ7 19-238) above
The assay can be described thus: BLI (ForteBio Octet), PDL1-His as mobile phase.

The target of assay [9] is T1, human PDL1 expressed on 293T-PDL1 cells. The assay can be described thus: flow cytometry on 293T-PDL1 cells. This is another data set of the same source.
Assay [10] has the same target. The assay is described as follows: cell-based or functional assay. This is another data set of the same source.
Assay [11] has as its target T7, LAG3-hFc (fusion protein of the human LAG3 extracellular domain and human IgG1-Fc) (human, UniProt P18627 23-450).
T7 construct: extracellular domain; not shown: human IgG1-Fc, Genbank CAC20454.1
T7 sequence (looked up): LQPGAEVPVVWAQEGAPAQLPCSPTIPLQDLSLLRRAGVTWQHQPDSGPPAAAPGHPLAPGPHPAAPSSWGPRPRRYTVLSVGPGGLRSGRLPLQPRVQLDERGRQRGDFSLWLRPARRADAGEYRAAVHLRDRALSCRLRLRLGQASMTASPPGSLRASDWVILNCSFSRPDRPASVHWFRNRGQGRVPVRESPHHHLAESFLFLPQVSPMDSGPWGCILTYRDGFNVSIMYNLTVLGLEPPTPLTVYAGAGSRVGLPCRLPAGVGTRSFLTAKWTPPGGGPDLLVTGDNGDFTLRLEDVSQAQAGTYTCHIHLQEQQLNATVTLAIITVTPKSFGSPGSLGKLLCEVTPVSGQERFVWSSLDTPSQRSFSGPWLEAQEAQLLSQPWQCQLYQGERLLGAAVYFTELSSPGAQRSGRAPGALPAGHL
The assay is described as follows: flow cytometry, blocking of LAG3-hFc binding to Daudi cells.

Assay [12] addresses T8, human LAG3 expressed on 293T-LAG3 cells (human, UniProt P18627 23-525).
T8 construct: whole, on cells; 293T cells stably expressing human LAG3 (Kyinno KC-0214); also called LAG3-expressing cells
T8 sequence (looked up): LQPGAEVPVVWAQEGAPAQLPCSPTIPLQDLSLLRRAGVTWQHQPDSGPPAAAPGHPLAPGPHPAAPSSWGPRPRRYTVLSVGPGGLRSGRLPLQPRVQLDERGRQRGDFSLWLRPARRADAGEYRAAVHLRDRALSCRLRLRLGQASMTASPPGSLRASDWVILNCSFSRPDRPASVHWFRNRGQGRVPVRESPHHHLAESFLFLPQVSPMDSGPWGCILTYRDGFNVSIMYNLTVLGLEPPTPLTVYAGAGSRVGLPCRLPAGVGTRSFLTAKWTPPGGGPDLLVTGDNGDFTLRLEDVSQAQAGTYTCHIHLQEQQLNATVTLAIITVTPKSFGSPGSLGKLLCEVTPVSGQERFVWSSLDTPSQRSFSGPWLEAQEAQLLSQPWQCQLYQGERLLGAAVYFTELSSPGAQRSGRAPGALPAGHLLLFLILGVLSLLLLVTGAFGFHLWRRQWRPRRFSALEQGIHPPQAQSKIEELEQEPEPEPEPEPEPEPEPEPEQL
The assay is described as follows: flow cytometry on 293T-LAG3 cells.

For assay [13], the target named is T9, EGFR-hFc (Kyinno, Cat No.: KP-1149) (UniProt P00533 25-645, limits assumed).
T9 construct: bought; also called EGFR-Fc; not shown: human Fc (hFc)
The assay is described as follows: ELISA, blocking of EGFR Fc fusion (taken as EGFR-hFc) binding to coated EGF-His.

The target of assay [14] is T3, human EGFR expressed on CT26-EGFR cells. The assay is described as follows: flow cytometry on CT26-EGFR cells. This is another data set of the same source.
For assay [15] the target is unchanged. The assay can be described thus: cell-based or functional assay. The source holds these as a separate data set.
Assay [16] has as its target T10, EGFR-His (Kyinno, Cat No.: KP-1150) (UniProt P00533 25-645, limits assumed).
T10 construct: bought; not shown: His tag
The assay can be described thus: BLI (ForteBio Octet), EGFR-His as mobile phase.

The target of assay [17] is T11, human PD1 expressed on 293T-PD1 cells (human, UniProt Q15116 25-288).
T11 construct: whole, on cells; 293T cells stably expressing human PD1 (Kyinno KC-0204); also called PD1-expressing cells; Jurkat NFAT-PD1-luc cells
T11 sequence (Q15116 25-288): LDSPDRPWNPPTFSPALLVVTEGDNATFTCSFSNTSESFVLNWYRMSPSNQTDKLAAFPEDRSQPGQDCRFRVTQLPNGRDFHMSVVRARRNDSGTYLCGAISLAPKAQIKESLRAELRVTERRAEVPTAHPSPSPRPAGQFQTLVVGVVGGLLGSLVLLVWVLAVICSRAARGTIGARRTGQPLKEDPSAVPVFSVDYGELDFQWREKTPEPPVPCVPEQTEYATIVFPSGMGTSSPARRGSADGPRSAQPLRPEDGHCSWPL
The assay can be described thus: flow cytometry on 293T-PD1 cells.

The target of assay [18] is T12, PD1-hFc (fusion protein of the human PD1 extracellular domain and human IgG1-Fc) (human, UniProt Q15116 25-170).
T12 construct: extracellular domain; also called human PD1-hFc; not shown: human IgG1-Fc, Genbank CAC20454.1
T12 sequence (Q15116 25-170): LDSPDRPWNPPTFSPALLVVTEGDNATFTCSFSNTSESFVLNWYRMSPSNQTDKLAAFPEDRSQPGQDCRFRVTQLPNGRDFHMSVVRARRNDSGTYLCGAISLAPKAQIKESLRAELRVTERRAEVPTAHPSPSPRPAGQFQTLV
The assay can be described thus: flow cytometry, blocking of PD1-hFc binding to 293T-PDL1 cells.

T1 sequence (Q9NZQ7 19-290): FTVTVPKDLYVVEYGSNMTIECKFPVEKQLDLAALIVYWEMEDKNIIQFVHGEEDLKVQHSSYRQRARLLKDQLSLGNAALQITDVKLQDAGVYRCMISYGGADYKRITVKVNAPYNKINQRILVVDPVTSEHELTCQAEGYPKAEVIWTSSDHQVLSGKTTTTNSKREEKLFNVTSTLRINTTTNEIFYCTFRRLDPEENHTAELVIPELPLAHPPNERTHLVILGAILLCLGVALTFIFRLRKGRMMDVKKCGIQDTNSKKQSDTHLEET

B1: KA-2016 H58E3-2V4-2-hIgG1 (antibody, V domains shown)
VH: QVQLVESGGGLVKPGGSLRLSCAASGFTFSDYGIHWIRQAPGKGLEWVAFISSGSSTIYYADAVKGRFTISRDNAKNSLYLQMNSLRAEDTAVYYCTRRDFYGSADAMDYWGQGTTVTVSS
VL: DIQLTQSPSTLSASVGDRVTITCSATSSIGYMHWYQQKPGTSPKRWIYDTSKLASGVPSRFSGSGSGTEYTLTISSLQPDDFATYYCQLWSSDPPYTFGQGTRLEIKR
notes: anti-PDL1 humanized antibody, human IgG1 / kappa
On to B1, for which, in [1], the “IC50, luciferase reporter (procedure of Example 25)” value was 0.081 nM. For the same molecule, in assay [2], the half-maximal inhibitory concentration (IC50) was 0.0229 µg/mL. The EC50 in assay [3] was found to be 0.0419 µg/mL.

B2: KA-1063 H22A12-2V1-hIgG1 (antibody, V domains shown)
VH: QVQLVQSGAEVKKPGASVKVSCKASGYTFTDYYMNWVRQAPGQGLEWIGDINPNDGGTSYNQKFKGRATLTVDKSTSTAYMELSSLRSEDTAVYYCAREILYYVTSFYFDYWGQGTTVTVSS
VL: DIQITQSPSSLSASVGDRVTITCSATSGVSYMHWYQQKPGKAPKRLIYDTSRLASGVPSRFSGSGSGTDYTLTISSLQPEDFATYYCQQWSSNPPYTFGQGTRLEIKR
notes: anti-EGFR humanized antibody, human IgG1 / kappa
In assay [4], B2 registered an EC50 of 0.0382 µg/mL. Also, in assay [5], the IC50 worked out at 0.0357 µg/mL. Besides, the “IC50, luciferase reporter (procedure of Example 34)” value in [6] stood at 0.389 nM.

B3: anti-PDL1 murine antibody 58E3-2 (hybridoma cell line KD-22-0227 58E3-2) (antibody, V domains shown)
VH: QVQLKESGGGLVKPGGSLKLSCAASGFTFSDYGIHWVRQAPEKGLEWVAFISSGSSTIYYADTVKGRFTISRDNAKNTLFLQMTSLRSEDTAMYYCTRRDFYGSADAMDYWGQGTSVTVSS
VL: QIVLTQSPAIMSASPGEKVTMTCSASSSVSYMHWYQQKSGTSPKRWIYDTSKLASGVPARFSGSGSGTSYSLTISSMEAEDAATYYCQQWSSNPPYTFGSGTKLEIK
notes: murine antibody
In the case of B3, in assay [7], the IC50 came out at 0.986 µg/mL. In assay [8], this molecule had a Kd of 0.431 nM, a koff of 0.000618 s⁻¹ and a kon of 1.43e+06 M⁻¹ s⁻¹. For the same molecule, the EC50 in assay [9] was 0.245 µg/mL. For the same molecule, in assay [10], the “IC50, luciferase reporter (Jurkat NFAT-PD1-luc + 293T OS8-hPDL1 cells)” value was determined as 1 µg/mL and the “Top (fold increase in activation), luciferase reporter” value was determined as 3.52.

B4: anti-LAG3 murine antibody 28G2 (hybridoma cell line KD-0019 28G2-7) (antibody, V domains shown)
VH: DVKLQESGPGLVKPSQSLSLTCSVTGYSFTSGYYWNWIRLFPGNKLEWMGYVSYFGTNNYNPSLKNRFSITRDTSKNQFFLKLNSVSTEDTATYYCARGEEWDWSFDVWGTGTTVTVSS
VL: DIVLTQSPAFMSASPGEKVTMTCSASSSVSYMHWYQQKSGTSPKRWIYDTSKLASGVPTRFSGSGSGTSYSLTISSMEAEDAATYYCQQWSTNPPYTFGGGTKLEIK
notes: murine antibody tested as hybridoma culture supernatant
Molecule B4 registered an IC50 in assay [11] of 1.26 µg/mL. This molecule also showed an EC50 in assay [12] of 1.08 µg/mL.

B5: anti-EGFR murine antibody 22A12-2 (hybridoma cell line KD-22-0198 22A12-2) (antibody, V domains shown)
VH: EVQLQQSGPELVKPGASVKISCKASGYTFTDYYMNWVKQSHGKSLEWIGDINPNDGGTSYNQKFKGKATLTVDKSSSTAYMELRSLTSEDSAVYYCAREILYYVTSFYFDYWGQGTTLTVSS
VL: QIVLTQSPAIMSASPGEKVTMTCSATSGVSYMHWYQQKSGTSPKRWIYDTSRLASGVPARFSGSGSGTSYSLTISSMEAEDAATYYCQQWSSNPPYTFGSGTKLEIK
notes: murine antibody
Molecule B5 registered an IC50 in [13] of 1.58 µg/mL. The molecule further gave an EC50 in assay [14] of 0.0242 µg/mL. Moreover, in assay [15], the “IC50, luciferase reporter (293T-NFAT-Luc2-EGFR cells stimulated with EGF-His)” value is 0.373 µg/mL. Moreover, in assay [16], the affinity, expressed as Kd, was 1.15 nM; the koff came to 0.00111 s⁻¹; the kon amounted to 965000 M⁻¹ s⁻¹.

B6: anti-PD1 murine antibody 107D12-10 (hybridoma cell line KD-22-0054 107D12-10) (antibody, V domains shown)
VH: QVQLKESGGGLVKPGGSLKLSCAASGFTFSDYGMHWVRQAPEKGLEWVAYISSGSYTIYYADTVRDRFTISRDSAKNTLFLQMTSLRSEDTAMYYCVRRGPGYFGSTALDYWGQGTTLTVSS
VL: QIVLTQSPAIMSASPGEKVTMTCSATSGVSYMHWYQQKSGTSPKRWIYDTSRLASGVPARFSGSGSGTSYSLTISSMEAEDAATYYCQQWSSNPPYTFGSGTKLEIK
notes: as for B4
On to B6, for which the midpoint of the response in [17], the EC50, lay at 0.685 µg/mL. Moreover, the IC50 in [18] is 2.26 µg/mL.
